Measurements as given in patent US7033773B1, “Screening assays for G protein coupled receptor agonists and antagonists” (The General Hospital Corporation, priority 1997, dated 2006).

Biological target: T1, rat PTHR (Rattus norvegicus, UniProt P25961)
T1 construct: expressed in transfected cells; host or cells: LLC-PK1 porcine renal epithelial cells (EW5; also EW29, AR-C38, AR-B44)
T1 sequence (P25961 27-591): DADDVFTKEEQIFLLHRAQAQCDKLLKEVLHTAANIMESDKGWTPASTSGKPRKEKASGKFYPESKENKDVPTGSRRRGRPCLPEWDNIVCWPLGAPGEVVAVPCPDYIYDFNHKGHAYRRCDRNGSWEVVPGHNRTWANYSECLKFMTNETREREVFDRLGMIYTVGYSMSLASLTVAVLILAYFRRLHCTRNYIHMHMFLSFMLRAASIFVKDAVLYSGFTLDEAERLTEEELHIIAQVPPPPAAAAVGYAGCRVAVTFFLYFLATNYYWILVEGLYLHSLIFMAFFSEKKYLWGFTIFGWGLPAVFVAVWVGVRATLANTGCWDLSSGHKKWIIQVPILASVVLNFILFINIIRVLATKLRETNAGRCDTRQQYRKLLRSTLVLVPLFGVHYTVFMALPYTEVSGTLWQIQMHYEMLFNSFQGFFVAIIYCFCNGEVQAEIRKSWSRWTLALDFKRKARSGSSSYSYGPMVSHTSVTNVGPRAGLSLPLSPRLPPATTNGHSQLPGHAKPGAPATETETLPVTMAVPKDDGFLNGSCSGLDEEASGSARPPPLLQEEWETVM
Assay: Cellular phosphate uptake in LLC-PK1 cells expressing rat PTHR
Format: cell-based
Method: Cells were seeded into 24-well plates at a density of 2.5×10^5 cells/well and cultured for a further 2 days before study. Twenty four hours before assay, cells were refed with 0.5 ml of DMEM containing 0.1% BSA. The next day, cells were refed with serum-free medium (DMEM+0.1% BSA) containing drugs or peptides, and the incubations were continued at 37° C. under 5% CO2 in air for another 6 hr. Cells then were washed with prewarmed Buffer B without BSA and Na2HPO4 and then were incubated at 37° C. for 5 min in 0.25 ml of the same buffer containing [^32P]orthophosphate (4 uCi/ml) and 0.1 mM Na2HPO4. Phosphate uptake was arrested by adding 1 ml of ice-cold sodium-free “stop buffer” [10 mM HEPES (pH 7.4), 140 mM choline chloride, and 5 mM sodium arsenate], followed by two further washes with same buffer. The drained cell layer then was solubilized in 0.5 ml of Lysis Buffer, and cell-associated radioactivity was determined by Cerenkov counting, as previously described (Guo, J., et al., Endocrinology 136:3884-3891 (1995)).
Responses to hPTH(1-34) or hPTH(1-31) (1000 nM) were measured in EW5 cells, which express 320,000 rat PTHRs per cell. Each value is the mean±SEM of a representative experiment performed in triplicate. Similar results were obtained in at least 3 individual experiments. […]

stimulation of phosphate uptake (in words) (EW5 cells): identical | Phosphate uptake (EW5 cells, 320,000 rat PTHRs per cell, peptide 1000 nM, mean±SEM): 134 ± 3 % of basal
Substance: hPTH(1-31)
